Assay results taken from article doi:10.1101/2021.07.28.454260.

Molecular target: HupA fused to a split luciferase fragment (positive control of the assay)
Experiment: split reporter

Question: For “HupA fused to a split luciferase fragment (positive control of the assay) (natural protein)”, which increase in luminescence signal after 1 hour of induction is on record?
Answer: Its increase in luminescence signal after 1 hour of induction is > 2.
